From patent US20140186344A1 (TRUSTEES OF BOSTON UNIVERSITY, published 2014)
No end group written: not given here. *: point of attachment. 125I = [125I]*

Key:
[1] = biological target: T1, Dahl S Dear S44/M74 variant (rat Dual Endothelin-1/Angiotensin II Receptor) (rat (Dahl S/JRHsd), UniProt D3ZGZ6 1-127); assay: saturation radioligand binding, Cos1 membranes; comparison of KH
T1 construct: It was assayed as membranes of transiently transfected Cos1 cells, and as rat kidney membranes on blots; also called Dahl S receptor; Cos1-S
T1 chain: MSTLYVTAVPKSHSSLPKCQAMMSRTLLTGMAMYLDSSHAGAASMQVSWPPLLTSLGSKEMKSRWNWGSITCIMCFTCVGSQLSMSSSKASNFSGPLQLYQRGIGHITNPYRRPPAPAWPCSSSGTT
Experimental: (§1) Binding of [¹²⁵I]Tyr⁴-angiotensin II and [¹²⁵I]Tyr¹³-endothelin-1 to COS-1 membranes was performed by a rapid filtration method (32, 50). Briefly, [¹²⁵I]Tyr⁴-angiotensin II (0.25˜6.5 nM) or [¹²⁵I]Tyr¹³-endothelin-1 (0.045˜1.46 nM) was incubated with membranes (100 μg) for 20 min at 37° C. in 100 μl buffer A (5 mM MgCl₂, 0.2 mM EDTA, 10 mg/ml BSA, 10 mM Hepes, pH7.4). Binding reactions were terminated by the addition of 1 ml ice-cold buffer A and immediately filtered through a Whatman GF/C filter (presoaked overnight at 4° C. in 10 mg/ml BSA) and subsequently washed with 15 ml ice-cold buffer A. Specific binding was determined as the difference between the total radioactivity bound to membranes and the radioactivity bound to blanks containing 1 μM AngII or 1 μM ET-1. The dissociation constant (Kd) and maximum ligand-binding sites (Bₘₐₓ) were determined using Hill plot analysis (55). Hill coefficient values (h) were calculated from the relationship ln [B/(Bₘₐₓ−B)]=h ln [free Radioligand]−ln Kd. […] The data were best fit by two affinity states determined by Scatchard plot analysis; KH and KL designate the Kd for high- and low-affinity states of the receptor, respectively (44). Most results are expressed as the mean±SE (standard error) from three to five independent experiments.

mouse Dear (Dual …) = biological target: T2, mouse Dear (Dual Endothelin-1/Angiotensin II Receptor) (mouse, UniProt Q2QKR2 1-127); assay: 125I-ET-1 binding to membranes of Cos-1 cells expressing mouse Dear
T2 construct: Endogenous protein in mouse kidney membranes and embryos was used for the antibody work; also called mouse receptor polypeptide; mouse Dear polypeptide
T2 sequence: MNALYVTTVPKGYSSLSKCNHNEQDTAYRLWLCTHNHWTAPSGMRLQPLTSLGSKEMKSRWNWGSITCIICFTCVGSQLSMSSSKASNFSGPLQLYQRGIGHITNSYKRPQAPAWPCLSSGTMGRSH

[2] = biological target: T3, Dahl R Dear S44P/M74T variant (rat Dual Endothelin-1/Angiotensin II Receptor) (rat (Dahl R/JRHsd), UniProt D3ZGZ6 1-127); assay: saturation radioligand binding, Cos1 membranes; KL, low affinity binding site; the column head says nM, and the unit is doubtful
T3 construct: It was assayed as membranes of transfected Cos1 cells and as kidney membranes on blots; also called Dahl R receptor; Cos1-R
T3 chain: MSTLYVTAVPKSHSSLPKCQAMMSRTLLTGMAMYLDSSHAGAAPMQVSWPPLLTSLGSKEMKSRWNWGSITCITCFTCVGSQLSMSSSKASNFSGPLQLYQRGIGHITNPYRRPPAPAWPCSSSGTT
Experimental: as §1

[3] = biological target: T1, Dahl S Dear S44/M74 variant (rat Dual …); assay: as above
Experimental: as §1

[4] = biological target: T3, Dahl R Dear S44P/M74T variant (rat Dual …); assay: saturation radioligand binding, Cos1 membranes; KH, high affinity binding site; the column head says nM but paragraph 132 gives this value in pM
Experimental: as §1

[5] = biological target: T1, Dahl S Dear S44/M74 variant (rat Dual …); assay: as above
Experimental: as §1

B1: [125I]Tyr13-endothelin-1 (peptide, UniProt P05305 53-73, looked up)
peptide: CSCSSLMDKECVY(125I)FCHLDIIW
modifications: ends and bridges not checked
notes: mature; Radiolabelled ligand; also called ET-1
fold increased affinity compared to the Dahl R Dear S44P/M74T variant [1]: 3 fold
binding result (mouse Dear (Dual …)): binds
Kd [2]: 836 pM
Kd [3]: 450 pM
Kd [4]: 12 pM
Kd [5]: 4.42 pM
